Patent US20250326843A1 (HARBOUR BIOMED SHANGHAI, published 2025)

What was measured:
murine B7-H4 = target: T1, murine B7-H4 (murine, UniProt Q7TSP5 25-257); experiment: flow cytometry on CHO-K1/mB7-H4 cells
T1 construct: whole, on cells; also called mB7-H4
T1 sequence (looked up): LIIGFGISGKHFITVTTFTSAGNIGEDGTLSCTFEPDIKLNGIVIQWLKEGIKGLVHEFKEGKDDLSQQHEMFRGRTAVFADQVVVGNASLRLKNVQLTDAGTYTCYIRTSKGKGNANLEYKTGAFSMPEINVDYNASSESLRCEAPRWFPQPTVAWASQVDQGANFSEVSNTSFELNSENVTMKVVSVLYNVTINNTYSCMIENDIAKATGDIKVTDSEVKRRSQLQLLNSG
Description: (§1) The CHO-K1 cell strain CHO-K1/huB7-H4 over-expressing human B7-H4 (produced in-house by Harbour BioMed), the CHO-K1 cell strain CHO-K1/cynoB7-H4 over-expressing cynomolgus monkey B7-H4 (produced in-house by Harbour BioMed), the CHO-K1 cell strain CHO-K1/mB7-H4 over-expressing murine B7-H4 (produced in-house by Harbour BioMed), SK-BR-3 and MDA-MB-468 cells were digested. T cells were isolated using the human T cell isolation kit (Miltenyi, #130-096-535) as described in the method of the instruction, and resuspended with PBS containing 2% FBS. The cell density was adjusted to 1×10⁶ cells/mL. The cells were seeded onto a 96-well V-bottom plate (Coming, #3894) at 100 μL/well, followed by the addition of test antibodies diluted in a 3-fold gradient at a concentration that was 2 times the final concentration, each at 100 μL/well. The cells were incubated away from light at 4° C. for 2 h. Thereafter, the cells in each well were rinsed twice with 100 μL of pre-cooled PBS containing 2% BSA, and centrifuged at 500 g at 4° C. for 5 min, and then the supernatant was discarded. […] Finally, the cells in each well were resuspended with 200 μL of pre-cooled PBS containing 2% BSA, and the fluorescence signal values were read using an ACEA Novocyte3000 flow cytometer.

human B7-H4 = target: T2, human B7-H4 (human, UniProt Q7Z7D3 25-282); experiment: flow cytometry on CHO-K1/huB7-H4 cells
T2 construct: whole, on cells; also called huB7-H4; B7-H4 on CHO-K1/huB7-H4, SK-BR-3 and MDA-MB-468 cells
T2 sequence (looked up): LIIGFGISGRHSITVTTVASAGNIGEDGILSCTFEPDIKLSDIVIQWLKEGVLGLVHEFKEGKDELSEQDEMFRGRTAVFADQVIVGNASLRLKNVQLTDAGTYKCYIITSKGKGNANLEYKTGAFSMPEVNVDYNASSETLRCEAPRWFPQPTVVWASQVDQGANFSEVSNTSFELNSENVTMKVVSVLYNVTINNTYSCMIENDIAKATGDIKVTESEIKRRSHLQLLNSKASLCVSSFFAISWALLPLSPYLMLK
Description: as §1

Binder	binding result (murine B7-H4)	binding result (human B7-H4)
B7-H4×CD3 bispecific antibody PR003733 (bispecific antibody, human IgG1, lambda, L234A L235A, Fab-Fc-scFv asymmetric structure (structure A); CD3 arm from PR001848, B7-H4 arm from PR003366) light: QAVVTQEPSLTVSPGGTVTLTCRSSTGAVTTSNYANWVQQKPGQAPRGLIGGTNKRAPWTPARFSGSLLGDKAALTLLGAQPEDEAEYFCALWYSNLWVFGGGTKLTVLGQPKAAPSVTLFPPSSEELQANKATLVCLISDFYPGAVTVAWKADSSPVKAGVETTTPSKQSNNKYAASSYLSLTPEQWKSHRSYSCQVTHEGSTVEKTVAPTECS heavy: not shown EIVMTQSPASLSVSPGERATLSCRASQSVSSNLAWYQQKPGQAPRLLIYGASTRATGIPARVSGGGSGTEFTLTISSLQSEDFAVYYCQQYKNWPFTFGPGTKLEIKGGGGSGGGGSGGGGSGGGGSQVQLVQSGAEVKKPGSSMRVSCKASEDTFSSYAISWVRQAPGQGLEWMGGTAPIFGTTNYAQKFQGRVTITADKSTSTAYMELSSLRSEDTAVYYCARGGPYFDYWGQGTLVTVSSASEPKSSDKTHTCPPCPAPEAAGGPSVFLFPPKPKDTLMISRTPEVTCVVVDVSHEDPEVKFNWYVDGVEVHNAKTKPREEQYNSTYRVVSVLTVLHQDWLNGKEYKCKVSNKALPAPIEKTISKAKGQPREPQVCTLPPSREEMTKNQVSLSCAVKGFYPSDIAVEWESNGQPENNYKTTPPVLDSDGSFFLVSKLTVDKSRWQQGNVFSCSVMHEALHNHYTQKSLSLSPGK	binds	
B7-H4×CD3 bispecific antibody PR003899 (bispecific antibody, human IgG1, lambda, L234A L235A, Fab-Fc-scFv asymmetric structure (structure A); CD3 arm from PR003886, B7-H4 arm from PR003366) light: QAVVTQEPSLTVSPGGTVTLTCRSSTGAVTTSNYANWVQQKPGQAPRGLIGGTNKRAPWTPARFSGSLLGDKAALTLLGAQPEDEAEYFCALWYSNLWVFGGGTKLTVLGQPKAAPSVTLFPPSSEELQANKATLVCLISDFYPGAVTVAWKADSSPVKAGVETTTPSKQSNNKYAASSYLSLTPEQWKSHRSYSCQVTHEGSTVEKTVAPTECS heavy: not shown EIVMTQSPASLSVSPGERATLSCRASQSVSSNLAWYQQKPGQAPRLLIYGASTRATGIPARVSGGGSGTEFTLTISSLQSEDFAVYYCQQYKNWPFTFGPGTKLEIKGGGGSGGGGSGGGGSGGGGSQVQLVQSGAEVKKPGSSMRVSCKASEDTFSSYAISWVRQAPGQGLEWMGGTAPIFGTTNYAQKFQGRVTITADKSTSTAYMELSSLRSEDTAVYYCARGGPYFDYWGQGTLVTVSSASEPKSSDKTHTCPPCPAPEAAGGPSVFLFPPKPKDTLMISRTPEVTCVVVDVSHEDPEVKFNWYVDGVEVHNAKTKPREEQYNSTYRVVSVLTVLHQDWLNGKEYKCKVSNKALPAPIEKTISKAKGQPREPQVCTLPPSREEMTKNQVSLSCAVKGFYPSDIAVEWESNGQPENNYKTTPPVLDSDGSFFLVSKLTVDKSRWQQGNVFSCSVMHEALHNHYTQKSLSLSPGK	binds	binds
